Measurements taken from patent US20120207721A1 (AARHUS UNIVERSITET, published 2012).

Molecular target: T1, soluble insulin receptor (IR) (R&D systems, 28-956) (UniProt P06213 28-956)
T1 construct: extracellular domain; Bought protein, coupled to a CM5 chip by NHS/EDC; It may be the same product as m8; also called soluble IR; immobilized soluble insulin receptor
Assay: SPR (Biacore), soluble IR coupled to CM5 chip, soluble SorCS1 as analyte

B1: soluble full-length extracellular part of SorCS1 (receptor)
chain: SGADQEKAERGEGASRSPRGVLRDGGQQEPGTRERDPDKATRFRMEELRLTSTTFALTGDSAHNQAMVHWSGHNSSVILILTKLYDYNLGSITESSLWRSTDYGTTYEKLNDKVGLKTILSYLYVCPTNKRKIMLLTDPEIESSLLISSDEGATYQKYRLNFYIQSLLFHPKQEDWILAYSQDQKLYSSAEFGRRWQLIQEGVVPNRFYWSVMGSNKEPDLVHLEARTVDGHSHYLTCRMQNCTEANRNQPFPGYIDPDSLIVQDHYVFVQLTSGGRPHYYVSYRRNAFAQMKLPKYALPKDMHVISTDENQVFAAVQEWNQNDTYNLYISDTRGVYFTLALENVQSSRGPEGNIMIDLYEVAGIKGMFLANKKIDNQVKTFITYNKGRDWRLLQAPDTDLRGDPVHCLLPYCSLHLHLKVSENPYTSGIIASKDTAPSIIVASGNIGSELSDTDISMFVSSDAGNTWRQIFEEEHSVLYLDQGGVLVAMKHTSLPIRHLWLSFDEGRSWSKYSFTSIPLFVDGVLGEPGEETLIMTVFGHFSHRSEWQLVKVDYKSIFDRRCAEEDYRPWQLHSQGEACIMGAKRIYKKRKSERKCMQGKYAGAMESEPCVCTEADFDCDYGYERHSNGQCLPAFWFNPSSLSKDCSLGQSYLNSTGYRKVVSNNCTDGVREQYTAKPQKCPGKAPRGLRIVTADGKLTAEQGHNVTLMVQLEEGDVQRTLIQVDFGDGIAVSYVNLSSMEDGIKHVYQNVGIFRVTVQVDNSLGSDSAVLYLHVTCPLEHVHLSLPFVTTKNKEVNATAVLWPSQVGTLTYVWWYGNNTEPLITLEGSISFRFTSEGMNTITVQVSAGNAILQDTKTIAVYEEFRSLRLSFSPNLDDYNPDIPEWRRDIGRVIKKSLVEATGVPGQHILVAVLPGLPTTAELFVLPYQDPAGENKRSTDDLEQISELLIHTLNQNSVHFELKPGVRVLVHAAHLTAAPLVDLTPTHSG
Kd: ~5 nM
